From patent CN114106159A (ANYUAN MEDICINE SCIENCE AND TECH SHANGHAI LIMITED COMPANY, dated 2022)

Columns and labels:
[1] = molecular target: T1, SARS-CoV-2 S1蛋白 (ACRO Biosystems) (SARS-CoV-2, UniProt P0DTC2 16-685); test: competition ELISA, coated SARS-CoV-2 S1, HRP-hACE2-Fc as competitor
T1 construct: domain: S1

刺突S蛋白-鼠Fc融合蛋白 (S-mFc) = molecular target: T2, 刺突S蛋白-鼠Fc融合蛋白 (S-mFc) (SARS-CoV-2; mouse, UniProt P0DTC2 14-1213); test: flow cytometry, blocking of S-mFc binding to 293T-ACE2 cells
T2 construct: domain: S蛋白全长区段

[2] = molecular target: T3, SARS-CoV S1蛋白 (ACRO Biosystems) (SARS-CoV, UniProt P59594 14-667); test: indirect ELISA, SARS-CoV S1 coated at 0.1 μg/mL
T3 construct: domain: S1

Binder | EC50 [1] | IC50 (刺突S蛋白-鼠Fc融合蛋白 (S-mFc)) | binding result [2]
人源化抗体hS1B-91-3 (humanized antibody) (antibody, V domains shown, also called 人源化单克隆抗体hS1B-91-3) VH: EVQLVQSGAEVKKPGSSVKVSCKASGYSFTDYWLHWVRQAPGQGLEWIGMLDPSDGETRLNQKFKDKATLTVDKSTTTAYMQLSSLRSEDTAVYYCARRHFGYDFDYWGQGTTVTVSS VL: DIVMTQSPSSLPVTPGQPASISCRSSKSLLHSNGNTYLYWFLQKPGKSPQLLIYRMSNLASGVPDRFSGSGSGTDFTLKISRVEAEDVGVYYCMQHLEYPLTFGGGTKVEIKR | 0.0738 µg/mL | 0.00813 µg/mL | 
鼠源抗体S1B-91-3 (murine monoclonal antibody against SARS-CoV-2 S1) (antibody, V domains shown, also called 鼠源单抗S1B-91-3; 鼠抗S1B-91-3) VH: QVQLQQSGPQLVRPGASVKISCKASGYSFTDYWLHWVKQRPGQGLEWIGMLDPSDGETRLNQKFKDKATLTVDKSSTTAYMQLSSPTSEDSAVYYCARRHFGYDFDYWGQGTTLTVSS VL: DIVMTQAAPSVPVTPGESVSISCRSSKSLLHSNGNTYLYWFLQRPGQSPQLLIYRMSNLASGVPDRFSGSGSGTAFTLRISRVEAEDVGVYYCMQHLEYPLTFGGGTKLEVK |  | 0.0137 µg/mL | no binding
